± gives the uncertainty stated by the source.

This data set in a line: amyloid nucleation score (Sup35N fusion, yeast selection) (log enrichment); library NNK1; higher = more nucleation; inactive = no reads after selection. The gist of the method: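 Growth for 7 days at 30°C on medium lacking adenine and uracil followed a 24-hour induction with 100 μM copper sulfate of psi-negative yeast expressing peptides of 20 random codons fused to Sup35N. Input and output plasmid inserts were sequenced with Illumina, and sequences with under 100 input reads were excluded. Nucleation score is the DiMSum log enrichment of output over input reads, centred on the mode score of non-aggregating sequences.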
For FRVLWDYCVSSTVRRVTSLG, the amyloid nucleation score result is “inactive”.

The substance FRVSSFWYWYVHLQGYYGTV yielded an amyloid nucleation score of 1.01 ± 0.8.

As for FRYIYMMDMSSYQYVKRGSS, the amyloid nucleation score entry was “inactive”.

In turn, FRYLVKYRVLH returned an amyloid nucleation score of 0.14 ± 0.44.

In the case of FRYVDALHDRSSYIQIGKRI, the amyloid nucleation score was -0.423 ± 1.5.

The substance FSDQTFSDLGMIEFRGFLWS had an amyloid nucleation score of 0.343 ± 0.39.

FSDSKLILRRRNPW displayed an amyloid nucleation score of -1.56 ± 1.4.

FSFISKIIESCYGDFLVGDA gave an amyloid nucleation score of -1.21 ± 0.61.

As for FSGHNC, the amyloid nucleation score was 0.299 ± 0.35.

FSKCSFT showed an amyloid nucleation score of -0.169 ± 0.69.

Substance FSLDMSTCVLENFVLDTFQH yielded an amyloid nucleation score of -2.21 ± 2.7.

The substance FSLLYV yielded an amyloid nucleation score of 0.321 ± 0.67.

With FSMGQQMFVLVLSCFLVLWC, the amyloid nucleation score was 0.832 ± 0.65.

In turn, FSMGSVWTEERQLCWVPMVW registered an amyloid nucleation score of 1.11 ± 0.94.

Consider FSMLIDEELDFSAETSLRHG, for which the amyloid nucleation score turned out to be 0.637 ± 0.59.

Substance FSNARWASRSLKSARMACVA returned an amyloid nucleation score of 0.554 ± 0.81.

As to FSNDRCGFVAR, the amyloid nucleation score worked out at 0.149 ± 0.26.

Turning to FSNIWMSTMVPSRVRKARCV, the amyloid nucleation score was 0.05 ± 0.75.

Substance FSNNLHLWAITSVLNIQTSN showed an amyloid nucleation score of 6.245 ± 0.053.

FSPLCKPLNSWYNQVKYRRH gave an amyloid nucleation score of 0.131 ± 0.84.

In turn, FSQRMGICYNVREFCNEFRC had an amyloid nucleation score of 1.47 ± 0.14.

FSRCPHQALSTECFPFFGS registered an amyloid nucleation score of -0.122 ± 1.4.

For FSRSTQVSER, the amyloid nucleation score came to 1.38 ± 0.61.

For the substance FSSIVSGTLAI, the amyloid nucleation score result was “inactive”.

Substance FSSLMLLTGEYSLSIWCKRS yielded an amyloid nucleation score of 1 ± 0.8.

Turning to FSSLWDGLLY, the amyloid nucleation score was 1.16 ± 0.69.

Turning to FSVAGSE, the amyloid nucleation score result was “inactive”.

As to FSVRHLSVSVLRMGTHLLDA, the amyloid nucleation score is -0.746 ± 0.61.

On to FTARTGALGEVVWSFSLGLG, for which the amyloid nucleation score was found to be 0.316 ± 0.45.

With FTGNLSGDCIYYFLCVVLSM, the amyloid nucleation score came out at 0.47 ± 0.65.

FTLGVFSL had an amyloid nucleation score of 0.017 ± 0.22.

As for FTLLAFGCNSENGG, the amyloid nucleation score was -0.462 ± 0.6.

The substance FTLRSDVAQQVIDDMGAVGS returned an amyloid nucleation score of -1.11 ± 1.5.

With FTLYYFLSC, the amyloid nucleation score turned out to be 0.406 ± 0.56.

Substance FTRKLPSFVLL showed an amyloid nucleation score of 0.392 ± 0.61.

For the substance FTRTLMLMIRACCWHRFQLT, the amyloid nucleation score was found to be 0.008 ± 0.91.

On to FTSLNVRKLRGACRTTSSHG, for which the amyloid nucleation score is -0.077 ± 0.61.

On to FTVSRPIMYIVYNCLHSVCV, for which the amyloid nucleation score stood at 4.61 ± 0.049.

In the case of FTWMRYQKHEGHFI, the amyloid nucleation score is -0.447 ± 1.2.

Substance FVAASNYQAIPYCYRMIYVS showed an amyloid nucleation score of -0.102 ± 0.4.

FVATNPVL showed an amyloid nucleation score of 0.588 ± 0.42.

FVCRLATNYH: the amyloid nucleation score result was “inactive”.

With FVECSERRGSKGSLYIDEVS, the amyloid nucleation score is -0.629 ± 0.73.

As to FVEVMLIVNFTGLGVV, the amyloid nucleation score was 0.576 ± 0.16.

Turning to FVGCRHHFGPCTNRCTK, the amyloid nucleation score stood at 0.087 ± 0.9.

Substance FVLRRLALQ displayed an amyloid nucleation score of -0.992 ± 0.39.

FVPIDLGNGK yielded an amyloid nucleation score of 0.564 ± 0.51.

With FVRAIMARVGFTFV, the amyloid nucleation score worked out at 0.569 ± 0.47.

For FVRVANMVAWYNASRRLR, the amyloid nucleation score entry was “inactive”.

Take FVTWH: the amyloid nucleation score result was “inactive”.

On to FVYHWRSVKGNLVWRCGSMD, for which the amyloid nucleation score turned out to be 0.95 ± 0.63.

Turning to FWGFVGTVMLLKCVFHGVSA, the amyloid nucleation score is 0.628 ± 0.63.

On to FWIFRVLSINANTELSWDIV, for which the amyloid nucleation score is -0.631 ± 0.32.

The substance FWTRCVFLLRGNSMWESCRG had an amyloid nucleation score of -0.385 ± 0.9.

FWVGP displayed an amyloid nucleation score of -0.217 ± 0.51.

Substance FYEIY yielded an amyloid nucleation score of 0.021 ± 0.93.

FYFRPNDQSWYVTRLFLSPA: the amyloid nucleation score amounted to 0.491 ± 0.93.

Consider FYHFALFGVCARVPSDLACV, for which the amyloid nucleation score entry is “inactive”.

For FYIFCDDFTGCS, the amyloid nucleation score is 1.84 ± 0.11.

The substance FYISNMM returned an amyloid nucleation score of -1.35 ± 0.74.

Substance FYLFVMKDASILYLVCSFSF displayed an amyloid nucleation score of -0.46 ± 0.4.

Substance FYLHNICVRR yielded an amyloid nucleation score of -0.249 ± 0.52.

Substance FYQYVKCVIVPSVDALGVFS had an amyloid nucleation score of 0.931 ± 0.2.

FYRFLQPMS registered an amyloid nucleation score of -0.809 ± 0.88.

FYRQFHHLGEDPLH: the amyloid nucleation score is -0.583 ± 0.53.

FYVGDVITHHWEAELNYSDV gave an amyloid nucleation score of -0.573 ± 1.7.

GACECDGYVTWCLRGIFGAK displayed an amyloid nucleation score of -1.41 ± 0.94.

In turn, GACHLGDDYFRSSVVVTKSA gave an amyloid nucleation score of 0.232 ± 0.39.

Regarding GAGHGELDKWNPSDGPQLLW, the amyloid nucleation score is -0.096 ± 0.77.

The substance GAQATFEVHCLERTVWVYR had an amyloid nucleation score of -0.691 ± 1.4.

GASAEEIYCQP registered an amyloid nucleation score of -0.513 ± 0.34.

GASRVTNYRELLMASANHDG showed an amyloid nucleation score of -0.413 ± 0.45.

Regarding GAVCLGQIMCSRVPRDVNVK, the amyloid nucleation score was -0.547 ± 0.49.

GAVPDPKVVGMGFQMGAVNS showed an amyloid nucleation score of 0.877 ± 0.7.

GDCTLVMLINE: the amyloid nucleation score is 0.011 ± 0.28.

Consider GDFLIPRARDQFYRFSGFND, for which the amyloid nucleation score turned out to be 0.863 ± 0.46.

For the substance GDFSGSDVHLSFLF, the amyloid nucleation score came out at 0.541 ± 0.4.

Take GDHFPEDGYSLEIADR: the amyloid nucleation score was -0.737 ± 1.2.

Take GDIFSVQQPSNHQLETLKYS: the amyloid nucleation score entry was “inactive”.

GDQSM displayed an amyloid nucleation score of 0.262 ± 0.31.

For the substance GEDVFVRSNELRN, the amyloid nucleation score was 0.338 ± 0.38.

Substance GEIEHHLRYVQCYFRRAVRL came in with an amyloid nucleation score of 0.319 ± 0.33.

In turn, GEIGNIPLMKRRTEWQFVVA yielded an amyloid nucleation score of 0.25 ± 0.47.

The substance GEKCGSVPGHQLGTDILSRA gave an amyloid nucleation score of 0.819 ± 0.67.

The substance GERDACYPKSLD registered an amyloid nucleation score of -1.06 ± 2.4.

GESHPFNVFRYCL: the amyloid nucleation score was 1.42 ± 0.14.

With GFAFSNVCIVAYYRYFSSRR, the amyloid nucleation score came to 3.26 ± 0.15.

On to GFARLLLRRVHRAIISHFRF, for which the amyloid nucleation score was -0.617 ± 0.45.

Turning to GFFDSCLEMFTLSTYFCTFY, the amyloid nucleation score is 2.86 ± 0.096.

Turning to GFFLI, the amyloid nucleation score is -0.007 ± 0.21.

Substance GFFPGHHSFLEATSLVSSLF came in with an amyloid nucleation score of 1.4 ± 0.63.

Substance GFLDVALTLSWANHRGDSSV returned an amyloid nucleation score of 3.04 ± 0.13.

As for GFNLSRTAMMICFGYFTA, the amyloid nucleation score stood at 6.61 ± 0.073.

Substance GFNMLC had an amyloid nucleation score of 0.224 ± 0.5.

GFRFW returned an amyloid nucleation score of 2.96 ± 0.11.

GFRYEPNWSLSFPGV registered an amyloid nucleation score of 0.214 ± 0.41.

GFSNLNSYD: the amyloid nucleation score was -0.55 ± 0.3.

The substance GFYFSYSWVRRSRNSKSMAS displayed an amyloid nucleation score of 0.418 ± 1.

In turn, GFYIDDYES showed an amyloid nucleation score of -1.39 ± 2.7.

Take GGFAILNAREEHWGLKGSSM: the amyloid nucleation score was -0.491 ± 0.55.

GGGEATLREFFKECGK had an amyloid nucleation score of -0.603 ± 0.35.

In the case of GGGQAELEGR, the amyloid nucleation score was found to be 0.365 ± 0.45.

Regarding GGIRRHTHGI, the amyloid nucleation score is -0.746 ± 1.4.

For the substance GGPQLKVCSFGLFWWFIEVV, the amyloid nucleation score entry is “inactive”.

In turn, GGRLRW registered an amyloid nucleation score of 0.452 ± 0.48.

GGVFMMSSDSTQIIRYVKSR: the amyloid nucleation score stood at 0.752 ± 0.56.

In the case of GGVLLRCRTSDNTGNQRVW, the amyloid nucleation score entry was “inactive”.

As for GHLCSLSSGFN, the amyloid nucleation score was determined as 0.69 ± 0.24.

In turn, GHSLHLWVTTKS came in with an amyloid nucleation score of 0.561 ± 0.66.

GHVRFSMHRRSDVCKQGSND yielded an amyloid nucleation score of 0.91 ± 0.47.

In the case of GHWPQRCIMVVECYQRQAHK, the amyloid nucleation score was determined as 0.115 ± 0.65.

With GHWSYYKVTSYYI, the amyloid nucleation score entry is “inactive”.

GIAVGS came in with an amyloid nucleation score of 0.413 ± 0.49.

Take GICELQRPTYVTLVEVFMVD: the amyloid nucleation score was -0.49 ± 0.41.

Consider GICHSPGWCC, for which the amyloid nucleation score came out at 2.69 ± 0.14.

As for GIDVCWSFFILYVWERVIRG, the amyloid nucleation score is 0.337 ± 0.36.

With GIENLRTDV, the amyloid nucleation score turned out to be 1.34 ± 0.37.

GIGAVSAC had an amyloid nucleation score of 0.317 ± 0.56.

Substance GIHNFEGGMTLWLLLFSQRS came in with an amyloid nucleation score of 0.24 ± 1.2.

GIIRKVLAEANLNCKVSSYR: the amyloid nucleation score is -0.488 ± 0.61.

In turn, GILFALSIVRDDYFC gave an amyloid nucleation score of -0.215 ± 0.19.

GIPCT showed an amyloid nucleation score of 0.38 ± 0.72.

Consider GIRFLWPFLIPRLHKVIARR, for which the amyloid nucleation score result is “inactive”.

For the substance GIRVFPMCNFG, the amyloid nucleation score result was “inactive”.

For the substance GISSSTLTFRTMWEDRCVEG, the amyloid nucleation score was determined as 0.825 ± 0.66.

GIVCYKCSVDFLLSWLSVVF returned an amyloid nucleation score of -0.092 ± 0.31.

As to GIVFIIQYS, the amyloid nucleation score entry was “inactive”.

GKCMYRVCYSEA displayed an amyloid nucleation score of -0.056 ± 0.46.

In the case of GKEDRIG, the amyloid nucleation score was -0.093 ± 0.81.

For GKFRYHGRAMRHSARALIYF, the amyloid nucleation score came out at 0.451 ± 0.42.

For the substance GKFSDSHIVA, the amyloid nucleation score was 0.308 ± 0.46.

Take GKVIQHG: the amyloid nucleation score is -0.579 ± 1.7.

Substance GKYKTFKNNITP gave an amyloid nucleation score of -0.416 ± 1.2.

The substance GLASVRILGRMQV came in with an amyloid nucleation score of -0.106 ± 0.36.

The substance GLDKALTFKALCDLLRNSLC returned an amyloid nucleation score of 0.598 ± 1.2.

For the substance GLFKICYLVT, the amyloid nucleation score turned out to be 0.408 ± 0.34.

Substance GLFMGWYDRMP came in with an amyloid nucleation score of 0.265 ± 0.6.

Substance GLGVIVVCPVCGSKGVCGKW showed an amyloid nucleation score of -0.914 ± 1.4.

GLGYPSVFSEHCVGLRDCEL showed an amyloid nucleation score of -0.189 ± 1.7.

With GLIYTTSLMRVLNSVVGL, the amyloid nucleation score entry is “inactive”.

Substance GLKRWSIGFRDGERQSCRVR gave an amyloid nucleation score of -0.523 ± 0.35.

GLLSK came in with an amyloid nucleation score of -0.062 ± 0.56.

As for GLNLNRFWRLGATFILYLQT, the amyloid nucleation score was found to be 1.19 ± 0.54.

Values taken from the supplement of paper PMC12042874.
